The values that follow come from paper PMC2920259 (Nature structural & molecular biology, 2010).

This series concerns the molecule itself. Briefly: crystal structure.

B1: IbpAFic2^H3717A (domain or fragment, Histophilus somni, UniProt Q06277 3482-3797, looked up)
chain: DETANKVNYQDLEDNLNLKGLISLEDDRNANFESNVLKNEKFLDEAREISKKSIPEATVKQMSHLPEFDDILTEGAKKVESRINKAITFRPSVEEFSEIQDLVKTLPKTKVIEDLSTKTNEITEALAATSKTIQRTPELKEQLKTAIEDFLQNSQGKPLTVQMIENLNHGLRPDEGEGRLLYKKENLTKENAVFSSPEAAKIQLAETVDFINRAKNEGIEPSVVGALVYQRLIAYAPFAEGNGRMARVIVNKILLDAGYPAFTKFSDEFEPQIIPQTKASTKSATSSEVVVEFLKELAKKGSKEDNEQNLEKTDRT
For B1, the binding result is reported as “binds”.
